experiment: soluble on expression in E. coli; label from the status in PepcDB or PDB records

Soluble on expression in E. coli, soluble:
GSHMEAPILYEDPPEKLTSKDGRAANMKITSWNVDGLRAWVKKNGLDWVRKEDPDILCLQETKCAEKALPADITAMPEYPHKYWAGSEDKEGYSGVAMLCKTEPLNVTYGIGKEEHDKEGRVITAEFPDFFLVTAYVPNASRGLVRLDYRKTWDVDFRAYLCGLDARKPLVLCGDLNVAHQEIDLKNPKGNRKNAGFTPEEREGFTQLLEAGFTDSFRELYPDQAYAYTFWTYMMNARSKNVGWRLDYFVLSSALLPGLCDSKIRNTAMGSDHCPITLFLAV
MSGILALGAYVPERVMTNADFEAYLDTSDEWIVTRTGIKERRVAAEDEYTSDLAFKAVEDLLRRHPGALEGVDAVIVATNTPDALFPDTAALVQARFGLKAFAYDLLAGCPGWIYALAQAHALVEAGLAQKVLAVGAEALSKIIDWNDRATAVLFGDGGGAAVVGKVREGYGFRSFVLGADGTGAKELYHACVAPRLPDGTSMKNRLYMNGREVFKFAVRVMNTATLEAIEKAGLTPEDIRLFVPHQANLRIIDAARERLGLPWERVAVNVDRYGNTSTASIPLALKEALDAGRIREGDHVLLVSFGAGLTWAAAVLTWGGA
SDVVEVVGSWWAQEREDIIMKYEKGHRAGLPEDKGPKPFGSYNNNIDHFGMQHETELPPLTAREVKQIRREISRKSKWVKMLGEWDTYKNSRKLIDRAYQGIPMNIRGPMWSVLLNIEEIKLKNPGRYQIMKEKGKRSSEHIQQMDLDVSGTLRRHIFFRDRYGTKQRELLYILLAYEEYNPEVGYCRDLSHIAALFLLYLPEEDAFWALVQLLASERHSLQGFHSPNGGTVQGLQDQQEHVVATSLPKTMWHQDKKDLCGQCSSLGCLIRILIDGISLGLTLRLWDVYLVEGEQAFMLITKSPLRFSRSASRRRPGVARGHVFGTGSLMPGPGMMTLCSSILGPL
MAAIKANEQDAVGMIVRKQSEFEENSHNFNNNGPSLSDMPIEVIHNIVDYVDPINILVIRKVCRKLRNVLDGDPKFKDVHLHQPTSLDMNFSLELDDSWVDYRTNGSGSGLGLFRNSISKTKTKIFVLKHENENENENGTNCTYGF
MNECAFGTKDPVYLNYHDHVWGQPLYDSKALFKLLALESQHAGLSWLTILKKKEAYEEAFYDFEPEKVAQMTAQDIDRLMTFPNIVHHRKKLEAIVNQAQGYLKIEQAYGSFSKFLWSYVNGKPKDLQYEHASDRITVDDTATQLSKDLKQYGFKFLGPVTVFSFLEAAGLYDAHLKDCPSKPKHN

Soluble on expression in E. coli, not soluble:
MGSDKIHHHHHHMTTEFKGQTIPPMHTGGQGAVTGQRFLDRLRQNPPTLYIDGQRVADPTTHPSTRNMCQSLAGLYDLQFQEDLKETLTYEDGGKRYARSFMVPRTKDDLRLIAESHRIRANYGLGFLGRAPDYMNANVMAAGAGAEYFNGCSAAVPGDPKRDFAANMRRYYEYVQGNDLCLTHALTNPQVNRSKMASELPDPYIALGIVEETDEGVIVRGARMMATLPIADEILIFPSTVLKENADKSRYAMGFGIPTNTPGLSFQCREPIDVGRDPEDHPLSSRFDEQDAFVIFDDVLVPWERIFLLYDVELANKAYAGTDAVLHMAYQVVNLKIAKTEAFLGTAQSIVNAIGSGGFQHVQAKIAEIIIMLEIMKALEVAAREQAEPNDYGVMTPARAPLDAARNYYPANHARLPELLQLLGASGIIMMPSKADREGPLGPQIAKYLQTGNANADERLRLFRLAWDMSMSSFAGRQELYERYFFGDPVRMHSALYEVYDSSEAVARIGEFLQRK
MDNHAEAHWQNGWLQSIRHTPSPNFSPRETGETVSLIVLHNISLPPFEYGTDAVEKLFANRLDPDGHPFFSLIHTLRVSSHFLIKRDGETVQFVSCDNMAYHAGVSSFGGREKCNAFSIGIELEGCDFEPFAEAQYRSLEALLDAICRHYPVTAVTGHQDIAPGRKTDPGHFFDWRRIREKGFLVDRNAV
MGDEFRPSHEERSKMYKSNVRDQNEMRRKRREDEVQIRKNRRDEKFERNRQITVQRSLSHEETSELLKSVADGLQSMQETTIHEALTVLHENLNNTVWTIHVLVKVQILHKLSDVYCNRVISQTTRLLISRTLLKISGIDEVKYERYSSDDRCIQSLVFNISTYGSSEDILCDTFQSIACFIIRSITYRNLALDCAIVSELIDASTINMSIILHRSLMWLVFLFCEKLDRCSPHVDEIAPLLEIISNGIQSTDAMVQTDAASSCASLAEWPPIYHYMSDLKLCSKLVANLRNDKGNARPKVKAGINSIIQATGYFTEEMIDAGLLEVLKGFVNVSYMSQEVCFIISNICVEGEQTIDKLISSGVLREVARVMEASEYRSRREAAFVICHCCASANQKHLEYVVELGMLSAFTDLLTCMDVSLVSYILDAIYLLLQFGEMRLLPDNSNPVAIKLEEIGCREKLEFLCESQSVDIHARAYTIIDRFYVDDDAPLNDDPFAGYQRNNIDDTIEKMIREPIMDQPFSF

Reference: the DeepSol protein solubility set
